These results are taken from patent US20240101668A1 (WUGEN, published 2024).

One test deals with T1, huCLL1-Q244-Avi-Tev-His (human, UniProt Q5QGZ9 65-265).
T1 construct: extracellular domain; also called CLL-1 K244Q
T1 sequence (looked up): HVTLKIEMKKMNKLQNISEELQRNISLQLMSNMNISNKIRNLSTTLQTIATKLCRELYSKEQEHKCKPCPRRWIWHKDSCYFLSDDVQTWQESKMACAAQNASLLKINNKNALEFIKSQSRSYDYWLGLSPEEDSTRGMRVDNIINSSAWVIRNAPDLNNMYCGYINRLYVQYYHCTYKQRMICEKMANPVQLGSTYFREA
The test can be described thus: BLI.

The next test concerns the target T2, huCLL1-K244-Avi-Tev-His (human, UniProt Q5QGZ9 65-265).
T2 construct: extracellular domain
T2 sequence (looked up): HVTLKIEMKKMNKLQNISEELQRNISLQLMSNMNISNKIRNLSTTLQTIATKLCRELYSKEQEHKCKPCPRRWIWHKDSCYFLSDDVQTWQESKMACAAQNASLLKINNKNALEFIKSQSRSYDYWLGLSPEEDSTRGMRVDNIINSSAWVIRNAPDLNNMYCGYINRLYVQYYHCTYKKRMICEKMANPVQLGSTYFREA
Kind of test: BLI. (In general: BLI is a label-free optical method that tracks binding on a fibre tip over time.)

Test [1] deals with T3, huCD33-G69 stably expressed on Jurkat cells (human, UniProt P20138 18-364).
T3 construct: whole, on cells; >200,000 receptors per cell; also called CD33 Mutant; CD33 R69G
The test can be described thus: FACS on cells.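 Also: fixed Jurkat cells bearing either CD33 variant, barcoded by dye, exposed to myc-tagged scFv periplasmic extracts, detected with anti-myc PE antibody and read by flow cytometry.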
Protocol: (§1) Jurkat cells were engineered to stably express either the huCD33-R69 or huCD33-G69 variant at >200,000 receptors per cell. Parental, huCD33-R69, and huCD33-G69 Jurkat cell lines were stained with differing levels of CellTrace Violet Cell Proliferation Kit (ThermoFisher, cat. #C34557) to barcode each cell line. Barcoded Jurkat cell lines were fixed with paraformaldehyde and incubated with myc-labeled scFv periplasmic extracts and a secondary anti-myc PE-conjugated monoclonal antibody. Appropriate positive and negative controls were used. Stained cells were analyzed by flow cytometry (CytoFLEX, Beckman Coulter, Inc.) and binding was assessed by change in PE mean fluorescence intensity (MFI) of the barcoded cell populations.

The target of test [2] is T4, huCD33-R69 stably expressed on Jurkat cells (human, UniProt P20138 18-364).
T4 construct: whole, on cells; >200,000 receptors per cell; also called CD33 WT; CD33^ARG69
The test can be described thus: FACS on cells.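 Also: fixed Jurkat cells bearing either CD33 variant, barcoded by dye, exposed to myc-tagged scFv periplasmic extracts, detected with anti-myc PE antibody and read by flow cytometry.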
Protocol: as §1

Test [3] has as its target T5, huCD33-G69-Fc recombinant protein (human, UniProt P20138 18-259).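 Also: scFvs from periplasmic extracts captured on biosensors via anti-V5 antibody, exposed to recombinant huCD33 variants for 2 min, 5 min dissociation, scored as binding, no binding or ambiguous.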
T5 construct: extracellular domain; also called CD33 R69G
Kind of test: BLI.
Protocol: (§2) Discovered scFvs were analyzed for binding to huCD33-R69-His or huCD33-G69-Fc recombinant proteins (for anti-CD33 scFvs; for CLL-1 scFvs, huCLL1-K244-Avi-Tev-His or huCLL1-Q244-Avi-Tev-His were used; for FLT3, huFLT3-T227-His or huFLT3-M227-Fc were used) using BLI on a ForteBio Octet HTX instrument. Streptavidin-coated biosensors were loaded with biotinylated anti-V5 tag monoclonal antibody for 5 min and were then quenched and blocked with 20 μM amine-PEG2-Biotin for 5 min. scFvs were captured on biosensors from scFv clone periplasmic extracts. huCD33 (or huCLL-1, or huFLT3) proteins were then associated with the captured scFvs for 2 minutes, followed by dissociation with buffer (1×HBST [10 mM HEPES pH 7.4, 150 mM NaCl, 0.05% Tween-20], 1 g/L BSA) for 5 minutes. […] Data was fitted with 1:1 Langmuir equation and off-rate values were reported.

T3 sequence (P20138 18-364 R69G): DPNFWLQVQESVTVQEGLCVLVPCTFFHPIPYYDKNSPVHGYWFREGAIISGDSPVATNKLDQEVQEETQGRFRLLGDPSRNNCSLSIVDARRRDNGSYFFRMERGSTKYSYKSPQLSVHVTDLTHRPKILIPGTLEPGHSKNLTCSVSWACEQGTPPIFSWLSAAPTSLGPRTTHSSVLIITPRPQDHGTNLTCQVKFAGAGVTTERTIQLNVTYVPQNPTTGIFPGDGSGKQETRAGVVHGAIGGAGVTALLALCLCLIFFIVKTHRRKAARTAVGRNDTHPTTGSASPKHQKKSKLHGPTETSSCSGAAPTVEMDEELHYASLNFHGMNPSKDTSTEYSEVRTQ
T4 sequence (P20138 18-364): as the sequence (P20138 18-364 R69G) above, with G52R counted along it
T5 sequence (P20138 18-259 R69G): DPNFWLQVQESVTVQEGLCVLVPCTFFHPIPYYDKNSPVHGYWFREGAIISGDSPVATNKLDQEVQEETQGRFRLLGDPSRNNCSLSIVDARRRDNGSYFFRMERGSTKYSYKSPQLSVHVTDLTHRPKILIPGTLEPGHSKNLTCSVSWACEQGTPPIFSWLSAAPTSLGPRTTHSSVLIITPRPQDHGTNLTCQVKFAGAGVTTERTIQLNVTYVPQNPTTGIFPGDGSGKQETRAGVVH
Protocol for huCLL1-K244-Avi-Tev-His: as §2
(§3) Analogous methods were used to assess selectivity of binding of polypeptides to CLL-1 K244 or CLL-1 Q244.
Protocol for huCLL1-Q244-Avi-Tev-His: as §2, §3

B1: Polypeptide No. 82 (scFv, V domains shown)
VH: QVQLVQSGAEVKKPGSSVKVSCKASGGTFSNYDISWVRQAPGQGLEWMGGIIPIFGTANYAQKFQGRVTITADESTSTAYMELSSLRSEDTAVYYCAREAEEGGWFDPWGQGTLVTVSS
VL: EIVMTQSPATLSVSPGERATLSCRASQSVSSYLAWYQQKPGQAPRLLIYGASTRATGIPARFSGSGSGTEFTLTISSLQSEDFAVYYCQQYAFSPITFGQGTKLEIKR
notes: scFv
As to B1, the binding result is reported as “binds” with huCLL1-Q244-Avi-Tev-His and “no binding” in the test with huCLL1-K244-Avi-Tev-His.

B2: Polypeptide No. 44 (scFv, V domains shown)
VH: EVQLLESGGGLVQPGGSLRLSCAASGFTFSSYAMHWVRQAPGKGLEWVADISGSGGLTYYADSVKGRFTISRDNSKNTLYLQMNSLRAEDTAVYYCAREGDQYSSSSFFDYWGQGTLVTVSS
VL: not shown
notes: scFv
On to B2, for which the binding result is reported as “no binding” in the test with huCLL1-Q244-Avi-Tev-His and “binds” in the test with huCLL1-K244-Avi-Tev-His.

B3: Polypeptide No. 88 (scFv, V domains shown)
VH: QVQLVQSGAEVKKPGASVKVSCKASGYTFTGYHIHWVRQAPGQGLEWMGRINPNSGGTDYAQKFQGRVTMTRDTSTSTVYMELSSLRSEDTAVYYCARETYSGSYEESFDYWGQGTLVTVSS
VL: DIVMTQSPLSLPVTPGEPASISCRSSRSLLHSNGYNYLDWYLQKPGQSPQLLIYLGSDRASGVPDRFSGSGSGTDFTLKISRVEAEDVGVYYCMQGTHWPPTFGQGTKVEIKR
notes: scFv
B3: the binding result with huCLL1-Q244-Avi-Tev-His is reported as “binds”; with huCLL1-K244-Avi-Tev-His, “no binding”.

B4: Polypeptide No. 80 (scFv, V domains shown)
VH: QVQLVQSGAEVKKPGASVKVSCKASGFTFTSYYMHWVRQAPGQGLEWMGWMNPNSGNTGYAQRFQGRVTMTRDTSTSTVYMELSSLRSEDTAVYYCARGHSRTDYGMDVWGQGTTVTVSS
VL: DIQMTQSPSSLSASVGDRVTITCRASQSISSWLAWYQQKPGKAPKLLIYDTSSLQSGVPSRFSGSGSGTDFTLTISSLQPEDFATYYCQQGYSTPLTFGQGTKVEIKR
notes: scFv
In the case of B4, the binding result with huCLL1-Q244-Avi-Tev-His is given as “binds”; in the test with huCLL1-K244-Avi-Tev-His, “no binding”.

B5: Polypeptide No. 49 (scFv, V domains shown)
VH: EVQLVESGGGLVKPGGSLRLSCAASGFTFSDYALHWVRQAPGKGLEWVSLISGDGGSTYYADSVKGRFTISRDDSKNTLYLQMNSLKTEDTAVYYCARDLGGERSYWGQGTLVTVSS
VL: DIQMTQSPSSLSASVGDRVTITCRASQSISTWLAWYQQKPGKAPKLLIYAASTLQSGVPSRFSGSGSGTDFTLTISSLQPEDFATYYCLQDYSYPPTFGQGTKVEIKR
notes: scFv
Take B5: the binding result was “no binding” with huCLL1-Q244-Avi-Tev-His and “binds” with huCLL1-K244-Avi-Tev-His.

B6: Polypeptide No. 48 (scFv, V domains shown)
VH: EVQLLESGGGLVQPGGSLRLSCAASGFNFDDYAMHWVRQAPGKGLEWVSVIYSGGSTYYADSVKGRFTISRDNSKNTLYLQMNSLRAEDTAVYYCTRHDFDYWGQGTLVTVSS
VL: DIQMTQSPSSLSASVGDRVTITCRASQSISTYVNWYQQKPGKAPKLLIYAASSLQSGVPSRFSGSGSGTDFTLTISSLQPEDFATYYCQQDYSYPYTFGQGTKVEIKR
notes: scFv
As for B6, the results for the binding result in the test with huCLL1-Q244-Avi-Tev-His and with huCLL1-K244-Avi-Tev-His were “no binding” and “binds”, respectively.

B7: Polypeptide No. 20 (scFv, V domains shown)
VH: QVQLVQSGAEVKKPGASVKVSCKASGYMFTGYYIHWVRQAPGQGLEWMGWINPNSGGTNYAQKFQGRVTMTRDTSTSTVYMELSSLRSEDTAVYYCAKDRFGSGNYGYMDVWGKGTTVTVSS
VL: DIQMTQSPSSLSASVGDRVTITCRASQSIDRWLAWYQQKPGKAPKLLIYGASSLQSGVPSRFSGSGSGTDFTLTISSLQPEDFATYYCQQSYSTPWTFGQGTRLEIKR
notes: scFv
With B7, the figures for the “geometric mean MFI fold change over Jurkat parental” value (“geometric mean MFI fold change” for short) in test [1] and in test [2] were below 2 fold and 10 to 30 fold, respectively.

B8: Polypeptide No. 84 (scFv, V domains shown)
VH: QVQLVQSGAEVKKPGASVKVSCKASGGTFSNYAISWVRQAPGQGLEWMGWINPNSGGTNYAQKFQGRVTMTRDTSTSTVYMELSSLRSEDTAVYYCARVGYYDSSGGGMDVWGQGTTVTVSS
VL: DIQMTQSPSSLSASVGDRVTITCRASQSISSWLAWYQQKPGKAPKLLIYDASNLETGVPSRFSGSGSGTDFTLTISSLQPEDFATYYCLQTHSFPLTFGPGTKVDIKR
notes: scFv
Take B8: the results for the binding result with huCLL1-Q244-Avi-Tev-His and with huCLL1-K244-Avi-Tev-His were “binds” and “no binding”, respectively.

B9: Polypeptide No. 24 (scFv, V domains shown)
VH: QVQLVQSGAEVKKPGSSVKVSCKASGYSFTSYGISWVRQAPGQGLEWLGWISAYNGNTNYGQSLQGRVTITADESTSTAYMELSSLRSEDTAVYYCARARGAGTFFDYWGQGTLVTVSS
VL: DIVMTQSPLSLPVTPGEPASISCRSSQSLLHSNGYNYLDWYLQKPGQSPQLLIYDATNLPTGVPDRFSGSGSGTDFTLKISRVEAEDVGVYYCMQALQTPFTFGQGTKLEIKR
notes: scFv
In the case of B9, the “geometric mean MFI fold change” value in test [1] was below 2 fold; in test [2] it was above 30 fold.

B10: Polypeptide No. 47 (scFv, V domains shown)
VH: EVQLLESGGGLVQPGGSLRLSCAASGFTFDEYAMHWVRQAPGKGLEWVSAIGAGGSTYYADSVKGRFTISRDNSKNTLYLQMNSLRAEDTAVYYCASSLGPELRGVDYYYYGMDVWGQGTTVTVSS
VL: DIVMTQSPLSLPVTPGEPASISCRSSQSLLHSNGYNYLDWYLQKPGQSPQLLIYAASSLQSGVPDRFSGSGSGTDFTLKISRVEAEDVGVYYCMQGIQWPWTFGQGTKVEIKR
notes: scFv
Regarding B10, the binding result was “no binding” with huCLL1-Q244-Avi-Tev-His and “binds” with huCLL1-K244-Avi-Tev-His.

B11: Polypeptide No. 4 (scFv, V domains shown)
VH: QVQLVQSGAEVKKPGASVKVSCKASGGTFSSYAISWVRQAPGQGLEWMGWINPNSGNTGYAQKFQGRVTMTRDTSTSTVYMELSSLRSEDTAVYYCAREHGDMDVWGQGTTVTVSS
VL: EIVMTQSPATLSVSPGERATLSCRASQNINSDLAWYQQKPGQAPRLLIYGASTRATGIPARFSGSGSGTEFTLTISSLQSEDFAVYYCQQYDSLPFTFGPGTKVDIKR
notes: scFv
Take B11: the “geometric mean MFI fold change” value was below 2 fold in test [1] and above 30 fold in test [2]. Also, in test [3], the binding result is “no binding”.

B12: Polypeptide No. 78 (scFv, V domains shown)
VH: QVQLVQSGAEVKKPGSSVKVSCKASGGTFSRYPFSWVRQAPGQGLEWMGWMNPNNGDTGYAQKFQGRVTITADESTSTAYMELSSLRSEDTAVYYCARGDYPYMDVWGKGTTVTVSS
VL: DIQMTQSPSSLSASVGDRVTITCQASQDISNYLNWYQQKPGKAPKLLIYDASNLETGVPSRFSGSGSGTDFTLTISSLQPEDFATYYCQQSYSIPYTFGQGTKLEIKR
notes: scFv
Turning to B12, the binding result in the test with huCLL1-Q244-Avi-Tev-His was “binds”; with huCLL1-K244-Avi-Tev-His it was “no binding”.

B13: Polypeptide No. 81 (scFv, V domains shown)
VH: EVQLLESGGGLVQPGGSLRLSCAASGFTFSDHYMSWVRQAPGKGLEWVSIIYPDGKTYYADSVKGRFTISRDNSKNTLYLQMNSLRAEDTAVYYCAREGSYGDYDGMDVWGQGTTVTVSS
VL: DIQMTQSPSSLSASVGDRVTITCQASQDISNYLNWYQQKPGKAPKLLIYGASTLQSGVPSRFSGSGSGTDFTLTISSLQPEDFATYYCQQSYSTPWTFGQGTKLEIKR
notes: scFv
Consider B13, for which the binding result with huCLL1-Q244-Avi-Tev-His is “binds”; in the test with huCLL1-K244-Avi-Tev-His it was “no binding”.

B14: Polypeptide No. 46 (scFv, V domains shown)
VH: QVQLVQSGAEVKKPGASVKVSCKASGYTFTSYYMHWVRQAPGQGLEWMGMINPSAGSTSYAQKFQGRVTMTRDTSTSTVYMELSSLRSEDTAVYYCASVDSSGWYAPFDYWGQGTLVTVSS
VL: DIQMTQSPSSLSASVGDRVTITCRASQSISTYLNWYQQKPGKAPKLLIYDASNLETGVPSRFSGSGSGTDFTLTISSLQPEDFATYYCQQANSFPPTFGGGTKVEIKR
notes: scFv
B14: the figures for the binding result with huCLL1-Q244-Avi-Tev-His and in the test with huCLL1-K244-Avi-Tev-His were “no binding” and “binds”, respectively.

B15: Polypeptide No. 45 (scFv, V domains shown)
VH: EVQLVESGGGLVKPGGSLRLSCAASGFTFDEFGMNWVRQAPGKGLEWISYISGDSGYTNCADSVKGRFTISRDDSKNTLYLQMNSLKTEDTAVYYCAAGYGGYYFDYWGQGTLVTVSS
VL: DIQMTQSPSSLSASVGDRVTITCQASQDIDIYLNWYQQKPGKAPKLLIYAASTLESGVPSRFSGSGSGTDFTLTISSLQPEDFATYYCQQSYSTPPTFGGGTKVEIKR
notes: scFv
As to B15, the binding result with huCLL1-Q244-Avi-Tev-His is “no binding”; with huCLL1-K244-Avi-Tev-His it was “binds”.

B16: Polypeptide No. 37 (scFv, V domains shown)
VH: QVQLVQSGAEVKKPGASVKVSCKASGYTFTGYYLHWVRQAPGQGLEWMGVISPSGGGTSYAQKFQGRVTMTRDTSTSTVYMELSSLRSEDTAVYYCARAGFGEGVFRHWGQGTLVTVSS
VL: not shown
notes: scFv
For B16, the “geometric mean MFI fold change” value in test [1] was 2 to 10 fold; in test [2], below 2 fold.

B17: Polypeptide No. 86 (scFv, V domains shown)
VH: QVQLVQSGAEVKKPGASVKVSCKASGYTFTTYGISWVRQAPGQGLEWMGWINPNSGDTNYAQKFQGRVTMTRDTSTSTVYMELSSLRSEDTAVYYCARLTTATDSFDLWGRGTLVTVSS
VL: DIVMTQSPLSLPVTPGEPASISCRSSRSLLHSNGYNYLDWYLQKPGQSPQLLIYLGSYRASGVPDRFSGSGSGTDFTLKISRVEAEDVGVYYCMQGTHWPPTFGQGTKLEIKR
notes: scFv
In the case of B17, the binding result with huCLL1-Q244-Avi-Tev-His is recorded as “binds”; with huCLL1-K244-Avi-Tev-His it was “no binding”.

B18: Polypeptide No. 43 (scFv, V domains shown)
VH: QVQLVQSGAEVKKPGASVKVSCKASGYTFTNYYMHWVRQAPGQGLEWLGWISPYSGDTKYAQTLQGRVTMTRDTSTSTVYMELSSLRSEDTAVYYCARESMDRLDYWGQGTLVTVSS
VL: DIQMTQSPSSLSASVGDRVTITCRASQSISTYLNWYQQKPGKAPKLLIYDASNLETGVPSRFSGSGSGTDFTLTISSLQPEDFATYYCQQSYSTPVLTFGGGTKVEIKR
notes: scFv
Consider B18, for which the binding result in the test with huCLL1-Q244-Avi-Tev-His is on record as “no binding”; in the test with huCLL1-K244-Avi-Tev-His, “binds”.
